Paper PMC7383930 (Journal of Medicinal Chemistry, 2020)

Key:
[1] = molecular target: purified extracellular domain of PSMA (prostate-specific membrane antigen), residues 44–750 (human, UniProt Q04609); assay: SPR; ProteOn XPR36 chip; each NB (0.2 μg) immobilised by amine coupling (sulfo-NHS/EDC, 10 mM sodium acetate pH 5.0); soluble PSMA flowed at 25 μL/min (25-3200 pM for NB7; 2.94-47.00 nM for NB8, NB13, NB37); dissociation in PBST (0.005% Tween); BSA surface subtracted; Langmuir 1:1 kinetic model; 25 °C; conditions: both partners purified
purified extracellular domain of PSMA (prostate-specific membrane antigen), residues 44–750, sequence (Q04609 44-750): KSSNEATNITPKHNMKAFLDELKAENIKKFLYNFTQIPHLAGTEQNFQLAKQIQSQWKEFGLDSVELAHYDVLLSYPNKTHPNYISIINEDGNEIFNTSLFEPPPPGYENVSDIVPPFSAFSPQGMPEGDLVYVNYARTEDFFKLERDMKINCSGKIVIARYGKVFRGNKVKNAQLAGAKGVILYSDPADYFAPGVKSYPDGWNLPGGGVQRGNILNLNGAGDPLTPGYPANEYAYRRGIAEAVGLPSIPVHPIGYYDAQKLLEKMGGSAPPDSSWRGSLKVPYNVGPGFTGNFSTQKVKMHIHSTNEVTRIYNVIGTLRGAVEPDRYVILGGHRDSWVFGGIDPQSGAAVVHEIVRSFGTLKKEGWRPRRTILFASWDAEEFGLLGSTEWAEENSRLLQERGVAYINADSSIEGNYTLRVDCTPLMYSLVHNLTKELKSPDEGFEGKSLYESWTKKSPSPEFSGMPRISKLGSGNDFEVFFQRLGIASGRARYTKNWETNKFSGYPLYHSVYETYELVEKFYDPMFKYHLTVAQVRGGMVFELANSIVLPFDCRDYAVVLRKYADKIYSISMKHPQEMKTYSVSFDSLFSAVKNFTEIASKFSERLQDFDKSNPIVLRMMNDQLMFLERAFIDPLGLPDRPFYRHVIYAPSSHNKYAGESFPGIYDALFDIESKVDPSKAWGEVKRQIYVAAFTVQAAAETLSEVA

[2] = molecular target: PSMA on PC3-PIP (PSMA+) prostate cancer cells (Homo sapiens, UniProt Q04609); assay: cell-based or functional assay
PSMA on PC3-PIP (PSMA+) prostate cancer cells, sequence (Q04609 whole entry): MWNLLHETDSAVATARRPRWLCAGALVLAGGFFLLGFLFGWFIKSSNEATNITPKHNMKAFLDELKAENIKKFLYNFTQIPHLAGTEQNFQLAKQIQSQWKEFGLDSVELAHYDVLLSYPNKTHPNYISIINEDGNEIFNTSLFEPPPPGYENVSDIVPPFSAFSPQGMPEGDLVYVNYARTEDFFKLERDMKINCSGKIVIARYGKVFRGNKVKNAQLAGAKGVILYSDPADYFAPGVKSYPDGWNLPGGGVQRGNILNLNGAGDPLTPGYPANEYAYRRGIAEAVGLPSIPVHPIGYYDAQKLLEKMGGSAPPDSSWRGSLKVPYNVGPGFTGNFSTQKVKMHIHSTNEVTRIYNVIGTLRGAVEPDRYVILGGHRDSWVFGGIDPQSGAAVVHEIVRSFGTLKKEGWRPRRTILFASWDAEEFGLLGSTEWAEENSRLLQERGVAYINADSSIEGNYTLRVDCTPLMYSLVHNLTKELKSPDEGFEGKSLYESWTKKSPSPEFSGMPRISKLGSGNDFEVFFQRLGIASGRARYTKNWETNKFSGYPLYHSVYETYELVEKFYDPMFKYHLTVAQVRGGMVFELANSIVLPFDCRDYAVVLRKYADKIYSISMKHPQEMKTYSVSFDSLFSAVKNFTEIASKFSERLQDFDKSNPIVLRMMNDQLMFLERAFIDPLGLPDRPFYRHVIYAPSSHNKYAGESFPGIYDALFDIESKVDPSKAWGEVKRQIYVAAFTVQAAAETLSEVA

Binder | Kd [1] [nM] | koff [1] [s⁻¹] | kon [1] [M⁻¹ s⁻¹] | whole-body NIR imaging of mice with PC3-PIP xenografts, AF680-labelled NB: duration until the fluorescent signal was no longer detected [2] [h]
NB7 (VHH) VHH: QVQLQESGGGSVQAGGSLRLSCTAPGYTDSNYYMSWFRQAPGKEREWVAGVNTGRGSTSYADSVKGRFTISQDNAKNTMFLQMNSLKPEDTAIYYCAVAACHFCDSLPKTQDEYILWGQGTQVTVSS | 0.055 | 3.9e-05 | 710000 | 
NB37 (VHH) VHH: QVQLQESGGGSVEAGGSLRLSCARSGWPYSTYSMNWFRQAPGKEREAVAGISSTMSGIIFAESKAGQFTISQDNAKNTVYLQMNNLKPEDTAIYYCAARRDYSLSSSSDDFDYWGQGTQVTVSS | 3.4 | 7.5e-05 | 22000 | 24
NB8 (VHH) VHH: QVQLQESGGGSVQAGGSLRLSCARSGWPYSTYSMNWFRQAPGKEREAVAGISSTMSGIIFAESKAGQFTISQDNAKNTVYLQMNNLKPEDTAIYYCAARRDYSLSSSSDDFDYWGQGTQVTVSS | 6 | 0.00012 | 20000 | 32
NB13 (VHH) VHH: QVQLQESGGGSVQTGGSLRLSCAASGYTASFSWIGYFRQAPGKEREGVAVINVGVGSTYYADSVKGRFTISRDNTENTISLEMNSLKPEDTGLYYCAGSLRWSRPPNPISEDAYNYWGQGTQVTVSS | 0.6 | 2.2e-05 | 36000 | 32
